In the DeepSol protein solubility set:

Assay: soluble on expression in E. coli; label from the status in PepcDB or PDB records

Sequence | soluble on expression in E. coli
MAGLKYEDAGVNIEAGNQAVERMKQHVKKTFTQDVLTGLGSFGSLYSLKNIINNYDDPVLVQSIDGVGTKTKVAVMCGKFENLGYDLFSAATNDIVVMGAKPITFLDYVAHDKLDPAIMEELVKGMSKACAECGVSLVGGETAEMPGVYQAGEIDMVGVITGIVDRKRIINGENIKEGDIVFGLSSSGLHTNGYSFARKLFFDVAGNKHTDTYPELEGKTIGDVLLEPHINYTNIIHDFLDNGVDIKGMAHITGGGFIENIPRVLPQGLGAQIDKDSFATPAIFKLMQRIGDISEFEMYRSFNMGIGMTIIASQDQFDKMQELAKKHTNTKLYQIGKITNSGKVEII | soluble
MMSTSIPDVAVHDSPAIAAPLRWVGMDGIVVPVQLTTADGGQHVIGRARAQIDLPAMGVKGIHMSRLYRLLDTYAVEPLTPVGICGLLSAMVNSHADCASTAARVDWYFDWLRRVPALVSNDLSGWRGYPVWLRAEYSAGHVQFWLCVEVAYSSTCPCSAALARQMLADAFLQEHVEVSALSPETVADWLRSNGSYATPHSQRSLARIEVALTEQAVELGLPALVDCAERILSTPVQAAVRRVDEQAFARLNGANLMYVEDATRRLQHGLAIHYSAFRVHVRHLESLHPNDAVASTADE | not soluble
REINGATRWIPLGPLNFQPTELFKLAVILYLASLFTRREEVLRSMESLGWQSIWRGTANLIMSATNPQARRETLEMYGRFR | not soluble
MLMNEFEKACETLRKFMAYMLEKDMKSWTELWDENAVFEFPYAPEGSPKRIEGKAAIYDYIKDYPKQIHLSSFTAPTVYRSADSNTVIAEFQCDGHVIETGLPYRQSYISVIETRDGRIVRYRDYWNPLVVKEAFGGSFLQTEESGK | soluble
MFRPILILTILSCVLAYHQYRELKCSTPTNSIRGGPDRAECHLVLKAEELETGRPVPTGLGCWQEDHDGEEREYCDIVCPKSHTVFISYIDQGHRACFNFITYQVEKRNDEHVLWRSGKCLNSTVNYRIGCKFDDPFETQFKSDNEIFAHLRARARRV | not soluble
MEEAKNPWLTGNLVEEANSQGIIQNRSIFNLFANTNIYIFFRHWTTIYERLLEIKQMNERVTKEINTRSTVTFAKDLDLLSSQLSEMGLDFVGEDAYKQVLRLSRRLINGDLEHQWFEESLRQAYNNKAFKLYTIDKVTQSLVKHAHTLMTDA | not soluble
MAHHHHHHMKLPYAKLEKHSRPVRCVHAEYGCTMLFCSVRCRQAGWSRFHFAGCPGAMMSDQRDAYDEFIHHDWEYRGVDYSDTVFLAFRFVCMAVTNIRLHRQSLELAYRPIAQLIKAPLSFFHFTYLFYREEADSTEKKGRGEKQIEKLRLIRWEAFRKFRATHMSTTENDTTDDFLATGMTLLGRILRFTQEECTLFTVARWSELLGAVLLNGQERSPPSNYDRLKELVRRLPCGESTMDAFEQEVQMAGNELQHLRQSSRGQGVYTVGCLFNHSCEPNLQVVYSESGDETLSVVALRDIEPGEELCISYIDESLSYPERQQELYEHYLFFCQCPKCEREAAAWEPIEPCEEVLSSAYTFSQLY | not soluble
MQQPEQYCRFLCLVAHEFFHLWNIKRIRPQAFEVFDYDSENYTTSLWFVEGVTSYFDQLIPLWAGLFDAPTYLKLLSDSLNRYFHTPGRFVQSLSAASFDAWIKLYRPDENSINSQMSYYLKGELVALEHHHHHH | soluble
MRTKDIYRLELRKIKIDKRMMKRILRLGIPSGIQQSIISLSNVVVQANVNIFGSTVMAGFGAYNKVDGFVVLPMQSFCMAATTFTGQNIGAGKPERIREG | not soluble
GPGHAGIFTFEEPVTHVSESIGIMEVKVLRTSGARGNVIVPYKTIEGTARGGGEDFEDTCGELEFQNDEIVKTISVKVIDDEEYEKNKTFFLEIGEPRLVEMSEKKALLLNELGGFTITGKYLYGQPVFRKVHAREHPIPSTVITIAEEYDDKQPLTSKEEEERRIAEMGRPILGEHTKLEVIIEESYEFKS | soluble
QAPGWLKEMRGEHAPETEEYGIASTAYRARRPFHPQRFFDLINRPWTNGKLLRSKGFFWLASKYKDAGSWSQAGGLMRHGFAGRWWRFVTRDSWPQDKESVASILENWSSETGDCRQELVFIGQNIDFTLLTAELDNCLLTDDEMAAGAERWRQLSDPFGEWYEDEVAA | not soluble
MVQNDETQYIARILDGDTECFSAFLDRYSRPLYVLIVQIVGCSEDAEELVQDVFLKAFRCLGSYRGECRFSTWLYRIAYTTAVSATRKKKQEFLYIEENTINNVPDEKADDILYPTDDEERTARLIQAIDLLNVEEKALITLFYYEEKSIEEIGEVLKLSPGNVKVKLHRTRKKIYVLMNGKE | not soluble
MSLAETFWVDVQRAEGRPLNLELIAPLSVGSKSVEEVENVAIRVELTNGCVGWGEVPVFPSVTAVNHTVALAKAMEACEFLSCSSPMVLSLVLSEIGGILPGPELASVRAGVEMALIDAVANSIDVPLWRLFGGVANTLTTGVTLPTVFPAEAYSQGASKYCQSGFRTFKLKIGKNTSAEIKALQAIQAAHPLCSLILDANEAYTCQEAIEILQKLYDSGITPAVLEQPVHRSDWKGLGEVSNFAREKKYGISVAVDETCQSLIEVRRVIKENLADAINIKLAKFGVMGALEIIELARESGVKLMISGTVESRLATGFAAHLAAGLGCFKSVVLDMPFLLSEDPVICGYEASGPVYKFLNVRGQGGFLKWDFSSWEGHHHHHH | soluble
MAASASGKSKTSAGANRRRNRPSPRQRLLDSATNLFTTEGIRVIGIDRILREADVAKASLYSLFGSKDALVIAYLENLDQLWREAWRERTVGMKDPEDKIIAFFDQCIEEEPEKDFRGSHFQNAASEYPRPETDSEKGIVAAVLEHREWCHKTLTDLLTEKNGYPGTTQANQLLVFLDGGLAGSRLVHNISPLETARDLARQLLSAPPADYSI | soluble
MSLSDDSTFGDATFVVLDFETTGLDPQVDEIIEIGAVKIQGGQIVDEYHTLIKPSREISRKSSEITGITQEMLENKRSIEEVLPEFLGFLEDSIIVAHNANFDYRFLRLWIKKVMGLDWERPYIDTLALAKSLLKLRSYSLDSVVEKLGLGPFRHHRALDDARVTAQVFLRFVEMMKKEGHHHHHH | soluble
MGKHKVGAVFLAGVLAMGTVMTGCSGKDETEGKTVIEMVQYKPEAVDIFEQFQDEFNATHDDIYLKIDSPNDAMTILKTRFIREDNPDIIGIGGDINYSNFLDADMLMDISDFEGLNDIKEKYLEMNKDLEYVPKDGVYAVPYMANAAGILFNRDMFEEHGWEVPTTWTEFTNLCDQIQSEGIQPLYFGFKDTWTTLAPWNAIAVSLCDSDLTYQVNSGKTTFAENYREVAEKEKALLTYGQKDPVSQGYNDACTAFARGASAMFTIGSYAISQIKSVNPDMNIGSFVFPANEDADKNVLNSGNDLMFCVMKDCKNKEAAYEVLSYMLEDENVKKYLNAQSAVPCKKGDFEVTPELEEMRDYIENGIVADYQDHHYPSEMSVDAMIQTYLMDDSADATDTFMKRFDKEWIRYNRDIVAKVKAYEEGNDHE | not soluble
MLQSNEYFSGKVKSIGFSSSSTGRASVGVMVEGEYTFSTAEPEEMTVISGALNVLLPDATDWQVYEAGSVFNVPGHSEFHLQVAEPTSYLCRYL | soluble
MGSDKIHHHHHHMSNSQILGERARILADQLLAVPTTVYQQRSLQAALHLFLDTGTKTALHRAPLVSKSAVSRLLNNYDWDTAACWALLQRSQWEALLLAARRKRRACLRLSVDLTSIEKTGKQLPFVRVYNEVHGIHLVVLFAEYRGLKFPVGYRVYRGKGTATPVSLALELLGEVPDAIRKRFRIRVLADSGFEAAVFLDGVRTLGFEFVVGVRATRRTTHPGQVTVADCEHGAWLELQNWPHDTLTLARVERGERTFFSVASELMTGDEVAAEGGKRWNIESFFKEGKHQFSLQQFALRTARGLDRWVLLVFLAFTLTMLHRSPDLSLEEAAGLALTLALPFLRLNVIFARLATDEEFLRQHGYSLKIARCNS | not soluble
MGSDKIHHHHHHMARINLEQLSTFLAVVRLGGVRRAATSLNLTQPAVTARIKNLEDNLDCELFDRTQSGMKLTKRGELLLGHAEKYEHLTQLVERDLVDPAGVEGRLRLGASETIAQCWLPDLVTRLHQLFPKLEIELVVDISANLRAGLMDRELDLAILLGPLSEFSVNNVELPDFELAWYAAADTSSEAIAASYLSRPVLTYPRNTRPYRELKEKLFEQAGPNFSLFPSSSLSACFRLVEADLGVAVLPRALGREYVLAGRIREFDPGWVPAPLRFTICYMGEPKSQLIETAAHMAREVAVDYHGDKNNL | not soluble
MLPAWGTSTEATASHAGWDGDDEGDIRAAYTEDEKKENIPPISLTSVSTNGAYPGQKRRRSESVRTLKPECPPEETQRLRQRRRISATDATQSSRTMNVIEDRKPRVNRARKSQDAPSTSTCGFETPVGTKRKSKAADSQKPPKQSKLRKIDEASTSKAVDNSSKDGKKTTKPAVTQSNRRRSGLSLRPVPIETIFSESSGRESSTEDEADVSHQQ | not soluble
MLERRDKEITDLKRRVANMVVVGKISHVDHKNARYRVKTGNLVSDWIPDTQARAGKTRSYEGRDVGEQVVVVSSSGDLSQGVIVGSIHTDANQAADKGNLHKTLYPDGTTIEYDDEQNSYALHLTSGGKFSLTISDGVSIKGDGKKLELQAAEGIKIISQGDLSLSAEKNIALKAGGSVSLHSDDGIALHSSEGVSIHSSDLKHNGTNIGNSHVHGGVSPGGSMTGGPN | soluble
IQHATASLIQTNTDQELLVVDVTPSFASLWLVPNINDFHQRHPNIRVKILTGDGAVKNIHGESDLHVRCLPLSTHYEYSQLLCEETLLLIGNTNLPKLSDNQAISHYPFIPQTTRPQLWEQFKQENDLECPITYHSVGFEHFYLACEAVRMEKGLALLPDFMAQFSILRGDIQHIGNLKLHSGYGYYVVIPNFRLTSRKVALFHDWLKDKLTHHT | soluble
GAAAGVAAWLPFARAAAIGWMPVANCPMPLAPADKNKRQDELIVLNVSGRRFQTWRTTLERYPDTLLGSTEKEFFFNEDTKEYFFDRDPEVFRCVLNFYRTGKLHYPRYECISAYDDELAFYGILPEIIGDCCYEEYKDRKREN | soluble
MGSDKIHHHHHHMKVAIVHYWFVGMRGGEKVIEALCELYPQADIFTHVFVPEAVSDRIRRHRVTTSFINSLPRASSMYKSYLPLMPLALEHLDLSGYDLVISSESGPAKGIIPPPDALHVCYCHTPMRYIWNMYHDYRNGAGRLTKLLMPPLAHYLRMWDVSTASRVDSFIANSATVADRVRRYYRRDSVVIHPPVDTAVFTPVPASELGDYYLMAGELVAYKRPDLAVQAFNQIGRKLVVIGGGEMLNELKRIAGPNVTVMGSQPFEVLRHHYMHCRALIFPGEEDFGMVPVEAMAAGRPVIAFGKGGATETVVPGLSGLFFQAQEVEQIRSAILQLDDIEIDPAKISSHAARFGKQAFFDGFRSHIDQLLAAKAQATARNRG | not soluble
MGSDKIHHHHHHMSLNSTPQSVRVHIGLFGKRNAGKSSIINAITNQSAAIVSDIAGTTTDPVFRPMEILPIGPCVLIDTAGLDDVGELGELRIGKSLDVLEKTDIALLVVDCQIGISQEDLSLIEKFNDKNIPHILILNKIDTIKNQSEILNLTKNKVKCPVVSVSSTDKIGIENLKNEIIKVLPKDSTEFKLVSDLIEPNDLVVLVVPIDKAAPKGRLILPQQQVIRDILDNGAISIVTKEDSLKETLSNLGKKPKLVITDSQVFPQVDKDTPKDIPLTSFSILFARQKGDLKELINGAYALENLKDGDKILMAEGCTHHRQTDDIGTVKIPNMIRKKTGKNITFEFSSGVSFTEDINKYALVVHCGACMMNRAGMLSRIEKAKSFNVPIVNYGVLIAYVKGILERSLELFNY | not soluble
